From publication PMC10881151 (Molecular Biology of the Cell, 2024)
Like-named read-outs stand apart in the source and are kept apart here.

Legend:
[1] = biological target: T1, actin filaments (rabbit skeletal muscle actin) (rabbit, UniProt P68135 1-377); experiment: co-sedimentation
[2] = biological target: T1, actin filaments (rabbit skeletal muscle …); experiment: co-sedimentation; remark: listed apart in the source
AUC = biological target: the molecule itself; experiment: AUC

B1: Drp1-WT (full-length human DRP1 isoform 3) (enzyme, UniProt O00429-4 1-699, looked up)
chain: MEALIPVINKLQDVFNTVGADIIQLPQIVVVGTQSSGKSSVLESLVGRDLLPRGTGIVTRRPLILQLVHVSQEDKRKTTGEENGVEAEEWGKFLHTKNKLYTDFDEIRQEIENETERISGNNKGVSPEPIHLKIFSPNVVNLTLVDLPGMTKVPVGDQPKDIELQIRELILRFISNPNSIILAVTAANTDMATSEALKISREVDPDGRRTLAVITKLDLMDAGTDAMDVLMGRVIPVKLGIIGVVNRSQLDINNKKSVTDSIRDEYAFLQKKYPSLANRNGTKYLARTLNRLLMHHIRDCLPELKTRINVLAAQYQSLLNSYGEPVDDKSATLLQLITKFATEYCNTIEGTAKYIETSELCGGARICYIFHETFGRTLESVDPLGGLNTIDILTAIRNATGPRPALFVPEVSFELLVKRQIKRLEEPSLRCVELVHEEMQRIIQHCSNYSTQELLRFPKLHDAIVEVVTCLLRKRLPVTNEMVHNLVAIELAYINTKHPDFADACGLMNNNIEEQRRNRLARELPSAVSRDKVASGGGGVGDGVQEPTTGNWRGMLKTSKAEELLAEEKSKPIPIMPASPQKGHAVNLLDVPVPVARKLSAREQRDCEVIERLIKSYFLIVRKNIQDSVPKAVMHFLVNHVKDTLQSELVGQLYKSSLLDDLLTESEDMAQRRKEAADMLKALQGASQIIAEIRETHLW
In the case of B1, the Kd [1] is reported as 1200 nM, the Kd [2] is reported as 1700 nM and the “stoichiometry N” value (AUC) is reported as 2.
